Measured values: patent US20090156525A1, “Low-Density Lipoprotein Receptor-Related Protein 2 Clears Amyloid-Beta Peptide A cross the Blood-Brain Barrier via Apolipoprotein J” (priority 2005, published 2009)

Assays:
[1] = Brain clearance technique: clearance of radiolabelled tracer from brain ISF and across the BBB after microinjection into the caudate nucleus; type: in vivo; conditions: for clearance from the brain ISF: 40 nM tracer microinjected into brain ISF, FIG. 1A/1B
Protocol: The brain clearance technique was used to determine Aβ clearance across the BBB and from CSF, as previously described (Shibata et al., 2000; Deane et al., 2004). Briefly, 0.5 μl of ^125I-Aβ42 (40 nM), ^125I-apoJ (40 nM) or ^125I-Aβ-apoJ (40 nM) was microinjected into the caudate nucleus simultaneously with ^14C-inulin (an inert reference molecule as an index of interstitial fluid (ISF) bulk flow) and, after 30 minutes (a typical time point unless stated), the brain was removed and radiolabel was counted.
^125I-Aβ-apoJ complex was prepared by incubating ^125I-Aβ42 and apoJ at a molar ratio of 15 to 1 (^125I-Aβ42: apoJ) at 37° C. for 3 hours, and excess ^125I-Aβ42 was removed by ultrafiltration with a 30 kD molecular weight cut-off membrane.
(§1) Percentage ^125I-(TCA precipitable) recovery in brain=NB/NI×100. Where NB is the ^125I-(TCA precipitable) recovered in brain and NI is the ^125I-(TCA precipitable) injected into brain ISF or CSF. Total ^125I-(TCA precipitable) clearance from brain ISF consists of two components: clearance across the BBB and clearance via bulk flow of ISF. Therefore, clearance across the BBB was calculated from the difference between total ^125I-(TCA precipitable) clearance and ^14C-inulin clearance (ISF bulk flow) as described (Shibata et al., 2000). Similarly, the percentage ^125I-(TCA precipitable) recovery in brain after microinjection into the CSF=NB/NI×100.

[2] = CSF clearance study: microinjection into the lateral ventricle; type: in vivo; conditions: 40 nM; after 30 minutes; microinjection into the lateral ventricles; FIG. 1E
Protocol: In the CSF clearance studies, 0.5 μl of ^125I-apoJ (40 nM) was micro-injected into the right lateral ventricles (coordinates (mm) from bregma: antero-posterior −0.5, mediolateral +1.0, dorsoventral −2.2) simultaneously with ^14C-inulin (the inert reference molecule), the brain was removed after 30 minutes, and radiolabel was counted.
as §1

[3] = after microinjection into the brain, FIG. 1C

Row | Substance | clearance from the brain ISF [1] | clearance of ^125I-Aβ42 across the BBB ([1]; in vivo) | clearance via the ISF bulk flow ([1]; in vivo) | clearance from brain relative to ^125I-Aβ42 (40 nM) ([1]; 40 nM, time-dependent clearance, FIG. 1B) | levels in plasma, compared to inulin [1, 3] | time dependent appearance of TCA precipitable radioactivity in CSF, compared to ^14C-inulin [1, 3] | clearance from the CSF as compared to ^14C-inulin [2]
1 | inulin [^14C-inulin, reference compound] | slowly removed |  |  |  |  |  | 
2 | ^125I-Aβ42: amyloid-β peptide Aβ42, amyloidogenic with high β-sheet content, radioiodinated tracer [reference compound] |  | 22%±2% | no a significant change |  |  |  | 
3 | ^125I-apoJ: apolipoprotein J, an 80 kDa sulfated glycoprotein, ligand of LRP2, radioiodinated tracer | rapidly cleared |  |  | substantially faster | relatively increased | decreased | rapidly cleared
